# A protein production outcome set (Wang et al. 2014)
# Test: label from the status in PepcDB records
row,Sequence,protein production
1,MNAMLVGADTLGNIPDVLQNYGITIHRHLSGRNSSHQRKVDRLPAGTDLLILFTDFLGHNVMRHFRELAAEQQIRFIACRRSVCALKQSLTGAGMCEQPCAACPQRSGGDKPVKRKR,failed
2,MNATAPGTPPNPPQSTGTLMPLVSFRRHRRIALMVMAVVVVFGAGFAWVKGKAVYSATAVLYVAPHFVNILKESKELDIPAYDQFIEHQALTVPRYDILLESLAKLGDRRYVWQKKKESDRRAAERLQAALEVKPVKDSYLITVTLESTTPDHLDELVNTIVDTYLEKSRESDSFFARNVRLTSLRERRGQIQGEIDAKLARRTEIAQELSVTTFSEQLASPYDKLLIESQNALAMAQRNRLASEAALALFEDRKSGQDAIAAAAFDTIQKDPGLISLKGSLYKRRSELLQQASGLDPRHPLKIQIDREFKEIDEELNRTVAKLTEQVAKSFIDQRKADVKRDRQIEQELSLQLESFRQKASWFAALYNEALSLSDEIERSRKQLDMIDERIEFFELESRAPGFVRVETYARPPELPVKGGRKKLFAVVLVLALALGAATPVGLDMLDQRIRTTGQVAKIIGHRPVAWFVEHHGSPDLKRMSADQLRRLAIAVNREREMHGSRLVSLTSVKPEAGVTDLALDLAAELGVLGVPTVVVEADPLRPDPRYRGGSAQPGLADLLAGSGEVTAAVVPAAGGLPARLGTGTAPGRQLFAYPALRRCLDELKAAYDLVLIDAPPLLLSADAEYLVEIADVTLLLVGAGQVKPGELRRAAGILEKIDPKAVGFVVTRLEVYRGGGYYAKLAEEFALAASHENGQKHTSRRLEG,failed
3,MNDIVEFLKVFIPLFIVIDPFGSLVLFTSMTYNFNEGEKMRATKDAVVYGGIILVMFALAGQFIIYFFGISIEALEMAGGVILLLMAVEMIMEGNRPKTSGSEVTTDLDIGIVPFATPLLAGPGAISLVIILMKGPLIDKIFTFVSIGIIFLMVYIFFKEASIVSKFIGNKAMKAVSRIFGLLLAGFAIQYFIDAVTALFLVH,failed
4,MNDIYFDDNRHNWNDRARLHEEAGYGIDKLLSDRDYITPEVEQDKDLIGDLTNKDVLHLQCHLGTDTISLARLGARRVLGLDLSDESLRRARNLAKKAGVSIDFIEGNVYDAREVIVGDFDLIYTSLGVLCWLPDITAWGRVVASLLKSGGKFIIRDDHPMFMTIGEDVRDGFKIEQPYFEQSQPMTWEDEGSYIETDASFEKIKNTRNHQWNHALSEIIMALINAGLQIDLVSESQHAAWNIWPHLMEKCSDGSYRLKKHSEVLPLQFLISAHKPEA,failed
5,MNDTLTLDEVVEFAENPEPRCPCVLLLDTSGSMQGAAIEALNQGLLSLKDELMKNSIAARRVEIAIVTFDSHINVIQDFVTADQFNPPILTAQGLTSMGAGIHKALDMVQERKSLYRANGVAYYRPWVFMITDGEPQGELDHLVEQAALRLQGDEVNKRVAFFSVGVENANMTRLNQIAVRTPLKLKGLNFIEMFVWLSASMSAVSHSQIDEQVALPPIGWGSI,failed
6,MNDTSNPYATPASALQPTQAVPPVIGDYDFRIGDVISEAWAKIKGVKGILIGAFVVYSVVIQTITFILTLLFGGIGLMSEADPIAFAVGQMIASLVATAVGYPFFTGLTMIGIRRAADQPATFNEMFNYFGMLVPLLLTGLLMMLMVYVGFFLLIIPGLYLSVAYMLALPLVAERGLTPWQALETSRKAISRHWFKVFGLLLVLSLLMLVSMIPLFIGLIWTGPLFVVSMGILYRTIFGVRPLGN,failed
7,MNEADMLFSVTVPGSTANLGPGFDSVGMALSRYLKLTVFESDKWSFEAETETVAGIPAGTDNLIYQVAKRTADLYGKEMPPVHVKVWSDIPLARGLGSSAAAIVAAIELADELCGLKLSEADKLHLASLEEGHPDNAGASLVGGLVIGLHEDDETQMIRVPNADIDVVVVIPFYEVLTRDARDVLPKEFPYADAVKASAVSNILIAAIMSKDWPLVGKIMKKDMFHQPYRAMLVPELSKVEHVAEMKGAYGTALSGAGPTILVMTEKGKGEELKEQLALHFPHCEVDALTVPKEGSIIERNPLYQVKSV,not failed
8,MNEDALTFLSRQHPYDELPAGVLNDVAAQVEKLSVAEGEMIYAYGEPLEGLYIIQSGLVDVRDQSDTQVSMLERGNSFGERGLLADGNAVTSARAVRDTLLIRVPVSLFNTLRTEQSPFQRFFARSSARPDKSATQQTSLAQVSVDALMVRNPVTCTPGTSVVDAAVLMTSRRISCLCITEEDRLTGIVTLRDLVGKALAAGLPPQTPLSDIIQNEPVSLPPTAIGSDVLHMMMEYNLGHLPIVDAGKLVGIVTQTDLTRYQATTAAGLVADAARAQSVEALADITGRIPALLVQLVAAGNRHDVVTRMITDIADVVTRRLLNMAEEKLGPAPLRYLWLACGSQGRQEQTGVSDQDNCLILEDGASRDDIAYFHEMATFVSDGLNACGYVYCPGDMMATNPRWCQPLSVWKEYFNGWIKSPSKEAQMLASVMFDLRPIGGDASLFHGMQQATLEKAAKNSIFTAHMASNSLTHQTPLGLLRGLATISSGDHRKTIDTKLNGVVPVVDLGRMYALQGKLTVANTRARLIAALNNKTISAKGGRDLLEAYDLVAQTRLEHQARLIKEGKAPDNYLPPARLSDFERSHLRDAFVVIKTMQSALMQGRGILG,failed
9,MNEELIKEKNFSDSVLSSYRMSLDHKKLQNKMIDNMLFRDISGGKKRTFVEEVEDNEEKNNKSAQKCIDGNDKNFIESRKKALENFQQNENNYDCTYKTIKKKNISGCNTTTKLKDVNSSEECQLCLMPNSDSLHGNFPPTFYKLTCDHIFHLMCLYETVIRRECRKTCCICHNELSENDKNEIINKVKLEKKENEKKSKLLFKVMKLQAENKDYPRKDICS,failed
10,MNEFETLLNSVEDVKVRDVVKGEILSVENGQATVAIVGTGVEGVLTLREITNDKDADINTFVKPGDVLDLLVIKQIVGKEAEGANVYLLSLKRLEARKAWTQLEGKEGEIVTVKVTKDVKGGLSVDYNGVRGFIPASMIDTYFVKDTKKFVGEEIEAKIIEVNASENRFILSRRAVVEAEAIEMRKEAFAQLQEGDIVEGTVSRVTNFGAFVDLGGIDGLVHVSELSHSRIKRPSDAVKPGDVVNVKILKLDPEAGRLSLSLKATQPGPWEQVEEKAPVGSTVEGTVKRLTDFGAFVELYPGVEGLVHVSQISWERVENPKDVLKVGQVVNVKVLDVKPAEERISLSIKALEEAPARPARNNDNDGEKRDRKPRAPRKAAKPSYDLPETQEGFSLADFLGEDFDINDLLEHHHHHH,not failed
11,MNEIFGIDLGTTYSCISYVDEYGRPVVVPNAENERITPSVVFFDGDNVIVGDVAKENSKMYPEDVVSFVKRSMGDENFYFEHGGKNYHAEEISSFILRKLISDAENNLGQKINDVVITCPAYFGINEREATKLAGEIAGLNVKAIINEPTAAAVAYGVDYDKDKVVLVYDLGGGTFDVTMIDVKKDSIKVICTGGDHNLGGKDWDDALIAYMAEQYKEITGNDKDILEDPETCQELQLLAERVKKTLSQREKAPISINYEGERAKIEITRQKFNELTYDLLQRTVNLMDDMLKEAAKKNYTSFDEILLVGGSSRMPQVEEIIKNKYNIEPKVFDPDEAVSKGAALYGWKLSVNDELVRRISEETGKDIEDIKKSIDEKSIDENVVEAAAKRVADDTGYTLSAVKASNVKVVNVVSKSFGVVTYNNEEKEVVYNLIIKNSEVPYEFTERFGTREENQENVMIKIVEDELSDKIVDIAYGNEIGEAELVLPENLPKNSPVDITFKLNEEGRLEIKAIEAVEKREISTSIETSSVIKGKDLEEAKERNKNIEVS,failed
12,MNENAPTHKSSHKVKTHTPVSGYHIEDLRTYPTEKLLEIANKLKVENPQEFKRQDLMFEILKTQVTQGGYILFTGILEIMPDGYGFLRGFDGSFSDGHNDTYVSPSQIRRFALRNGDIVTGQVRSPKDQEKYYALLKIEAINYSPSDEIRNRPLFDNLTPLFPDEQIKLEYEPTKVTGRMLDLFSPVGKGQRALIVAPPRTGKTELMKELAQGITSNHPEVELIILLVDERPEEVTDMQRSVKGQVFSSTFDLPANNHIRIAELVLERAKRRVEMGKDVVVLLDSITRLARAYNAVTPSSGKVLSGGVDANALHRPKRFFGAARNIEEGGSLTIIATALIETGSRMDEVIFEEFKGTGNSEIVLARNIADRRIYPAFDILKSGTRKDNILLGKDRLTKVWVLRNVMQQMDDIEALSFVYSKMQQTKDNEEFLNLMNEK,failed
13,MNENHKELISIGLTVSIVIFSLYIVHKFIPSMIWAAIIVIATYPLYTRWRKLFGNKHNTSAFLFTTLMGLLFLIPLSWLIGILIKESQLFINFLQHINKEGGAAPEFFKNIPLVGDDLIQYWDVNIGKPGNIKEFLSNLHVTLTPTSYYIKQIGVNLAHRSFQVGFTLLTLFFFYRDGDKLLLQIQHIGEYCLGDRWFRYSDRLPSALRGTVNGTIVVGIGVGILMGVCYALVGFPAPTLTGFITALAAMIPFVVPVVFIIVALILLSVGSLIGGIIVLVWGTLVMFVADHFVKPVLIGGAIQLPFLAVLFGILGGVETLGLLGLFLGPMVMVLFVTLWQEPQGHKKSSG,failed
14,MNERRKAELVLLGATFIWGSTFPVMKIGVEDFPPITFIALRFGIASFVLFLALRKHIRKDALFPGLILGFTLFLGHGFQIVGLKYTTPSNSAFITSLYVVFTPFIAFLFFRKGLKMFDAFSLSLAVIGLYLISNAELRLNYGDALTVVAALSFAFQIVLVEYFGNLGVGLAFWQIFWNFILSTVYAGIFEGISLPSDPKVLGGIIYTGIFATALSFTLQVKYQPKVESYKAAIIYSSEPIFAHLLALAFLNDRLPPKGYLGAFLILLAVWLELYQERKNY,failed
15,MNESERKIVEEFQKETGINFKNEELLFRALCHSSYANEQNQAGRKDVESNEKLEFLGDAVLELFVCEILYKKYPEAEVGDLARVKSAAASEEVLAMVSRKMNLGKFLFLGKGEEKTGGRDRDSILADAFEALLAAIYLDQGYEKIKELFEQEFEFYIEKIMKGEMLFDYKTALQEIVQSEHKVPPEYILVRTEKNDGDRIFVVEVRVNGKTIATGKGRTKKEAEKEAARIAYEKLLKERS,not failed
16,MNFAGKHVGFGLTGSHCTYHEVLPQMERLVELGAKVTPFVTHTVQTTDTKFGESSEWINKIKQITEEPIVDSMVKAEPFGPKTPLDCMVIAPMTGNSTSKFANAMTDSPVLMGAKATLRNGKPVVVGISTNDALGLNGINIMRLMATKNIYFIPFGQDNPQVKPNSLVARMEALPETIEAALRGQQYQPVLIEKFRD,not failed
17,MNFLSQRYTGKSLHPDETKCYKNFTQTAQKLTHRLAESINHYVNHIDCVINTNLYNRLLAEKKESNHMIYKERETWLEAILNTLPDHVFILDESGRYIESFGGTHHSKTFNAERYIGLQLSDVLSPTKADELMGFIFDVMQDNETKVVKYNLSLHDHLLLPIEELEALENPEEMWFEAIIKPVNAPENANKLVIWSVRDITKTHLLEQRLKQLSETDALTGLLNRRAFISNLDNAIIQHTKRSQTLSCLMIDIDHFKDINDSVGHFSGDHVITRIAHVCQGVIRGSDFIGRLGGEEFAVILTDTNAIQAYEVAERIRQAIQATICHVDDVEITTTVSIGVAELNSQQSNAKELLIEADKAMYYSKHSGRNQVTLAYENLPDLKLYQAGHLKIQRVS,failed
18,MNFNRFTQRAKKAIDLAFESAKSLGHNIVGSEHILLGLLREEEGIAAKVLSKVGFTEAYLEGKIVDMEGKGEEISEDIVLSPRSKQILELSGMFANKLKTNYIGTEHILLAIIQEGEGIANKILNYAGVNDRTLAQLTIDMMG,not failed
19,MNFQENLAALDLEYLWHPCSQMQEHQNFPIIPIKKAQGIYLYDFNDNAYMDLISSWWVNLFGHNNAYISQQLKNQIDDLEHVLLASFSHKPIITLSQRLCQLTHMDKCFYADNGSSCVEIALKMSYHAHFLKNQTRRKKLFLSLSNSYHGETLGALSVGDVKLYKDTYTPLLLKNLTTPVPKNDHEIENSLNALKRLLDKHSEEICAFIAEPLLQCAGNMHIYSARYLKQAVLLCKQKNIHIIFDEIATGFGRTGSMFAYEQCEIKPDFLCLSKGISGGYLPLSALLTHNEIYNQFYAPYEENKAFLHSHSYTGNALACACANATLDIFEKENVIEKNKALSGFIFNTLQNALKPLMEQQVVSDLRHLGMVFAFEVFIQTKERLSLAVFKKTLKKGLLLRPLNNTIYLMPPYIITHEEVKKAVAGLVEILDELRKG,failed
